{"source": "patent US20140206011A1", "key": {"[1]": {"biological_target": "E-cadherin (human) (UniProt P12830)", "sequence (P12830 155-882)": "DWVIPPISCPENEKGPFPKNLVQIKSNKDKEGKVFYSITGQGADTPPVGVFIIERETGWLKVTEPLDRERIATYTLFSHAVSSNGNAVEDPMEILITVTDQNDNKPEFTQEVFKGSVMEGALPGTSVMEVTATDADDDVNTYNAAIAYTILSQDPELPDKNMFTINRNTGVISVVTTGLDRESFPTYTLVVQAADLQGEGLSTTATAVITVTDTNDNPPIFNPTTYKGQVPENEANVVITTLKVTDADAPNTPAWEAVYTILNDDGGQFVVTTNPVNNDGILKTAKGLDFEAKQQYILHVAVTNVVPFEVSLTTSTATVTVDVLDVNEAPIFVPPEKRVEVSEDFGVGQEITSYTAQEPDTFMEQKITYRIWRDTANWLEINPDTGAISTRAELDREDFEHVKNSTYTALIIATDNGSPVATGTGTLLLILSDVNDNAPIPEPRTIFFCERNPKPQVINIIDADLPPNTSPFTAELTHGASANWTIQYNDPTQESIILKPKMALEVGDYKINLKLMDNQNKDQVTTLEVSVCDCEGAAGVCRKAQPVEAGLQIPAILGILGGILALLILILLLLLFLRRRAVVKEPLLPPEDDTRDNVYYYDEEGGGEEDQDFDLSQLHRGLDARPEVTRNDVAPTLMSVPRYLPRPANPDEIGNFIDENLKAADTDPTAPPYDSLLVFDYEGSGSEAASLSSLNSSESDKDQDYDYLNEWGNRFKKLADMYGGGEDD", "experiment": "cell-based or functional assay"}, "[2]": {"biological_target": "FadA on wild-type Fusobacterium nucleatum 12230 (Fusobacterium nucleatum)", "experiment": "cell-based or functional assay"}}, "data": [{"substance": "FadA on wild-type Fusobacterium nucleatum 12230", "values": [{"measurement": "attachment level of Fn to HCT116 (percent bacteria recovered relative to inoculum), FIG. 3C without inhibition", "setting": "[1]", "value": 4.4, "unit": "%"}, {"measurement": "attachment level of Fn to HCT116 without inhibition, FIG. 4B", "setting": "[1]", "value": 6.3, "unit": "%"}, {"measurement": "attachment level of Fn to HCT116 without inhibition, FIG. 4C", "setting": "[1]", "value": 5.9, "unit": "%"}, {"measurement": "invasion level of Fn into HCT116 (percent bacteria recovered relative to inoculum), FIG. 3C without inhibition", "setting": "[1]", "value": 1.3, "unit": "%"}, {"measurement": "invasion level of Fn into HCT116 without inhibition, FIG. 4B", "setting": "[1]", "value": 1.6, "unit": "%"}, {"measurement": "invasion level of Fn into HCT116 without inhibition, FIG. 4C", "setting": "[1]", "value": 1.4, "unit": "%"}]}, {"substance": "FadAc", "values": [{"measurement": "HCT116 cell growth (cell proliferation assay)", "setting": "[1]", "value": 1, "unit": "mg/mL"}, {"measurement": "HCT116 xenograft tumor growth in nude mice", "setting": "[1]", "value": 20, "unit": "%"}]}, {"substance": "GST-EC5 fusion protein (from UniProt P12830 594-697)", "values": [{"measurement": "inhibition of Fn attachment and invasion of HCT116", "setting": "[2]", "value": 0.1, "unit": "µM"}]}]}
